One block for each binder: values may come before it.
Target: T1, His-tag fusion human PRMT5 protein (human, UniProt O14744 1-637)
T1 construct: Protein arginine methyltransferase 5 (PRMT5), human; also called His-tagged PRMT5; his-tagged PRMT5; source: E. coli BL21DE3, recombinant; not shown: His-tag, N-terminal, kept
Assay: pull-down; GST fusion proteins immobilized on glutathione-Sepharose 4B beads, mixed with His-tag fusion human PRMT5; 4 °C, 2 h; beads washed four times; western blot with anti-His-tag mAb
Settings: both partners purified

T1 sequence (O14744 whole entry, the tested form may be a part): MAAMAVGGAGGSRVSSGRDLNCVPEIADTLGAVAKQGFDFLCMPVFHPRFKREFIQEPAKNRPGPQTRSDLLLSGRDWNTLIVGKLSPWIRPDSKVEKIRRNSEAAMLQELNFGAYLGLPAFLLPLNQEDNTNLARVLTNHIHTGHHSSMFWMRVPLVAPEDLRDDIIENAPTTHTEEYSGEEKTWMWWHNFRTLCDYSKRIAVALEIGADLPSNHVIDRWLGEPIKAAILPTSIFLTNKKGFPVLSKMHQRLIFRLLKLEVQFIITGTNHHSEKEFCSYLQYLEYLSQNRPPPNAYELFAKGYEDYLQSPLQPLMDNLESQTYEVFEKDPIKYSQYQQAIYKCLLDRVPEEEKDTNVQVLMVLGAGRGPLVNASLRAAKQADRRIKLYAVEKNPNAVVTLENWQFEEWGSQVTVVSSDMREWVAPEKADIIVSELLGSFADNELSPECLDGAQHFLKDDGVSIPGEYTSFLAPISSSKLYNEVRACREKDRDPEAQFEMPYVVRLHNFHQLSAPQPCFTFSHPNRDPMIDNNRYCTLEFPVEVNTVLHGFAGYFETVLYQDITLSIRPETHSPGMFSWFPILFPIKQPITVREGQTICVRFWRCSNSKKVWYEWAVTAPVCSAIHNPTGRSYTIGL

binding result: binds
B1: GST-Smad3 deletion mutant aa 225-425 (domain or fragment)
chain: not shown
notes: PCR product cloned into pGEX6P1 (BamHI, XhoI); cDNA from the pCMV Flag hSmad3 vector (human); source: E. coli BL21DE3, recombinant, immobilized on glutathione-Sepharose 4B beads

binding result: binds
B2: recombinant full-length GST-Smad3 (natural protein, human, UniProt P84022 1-425, looked up)
chain: MSSILPFTPPIVKRLLGWKKGEQNGQEEKWCEKAVKSLVKKLKKTGQLDELEKAITTQNVNTKCITIPRSLDGRLQVSHRKGLPHVIYCRLWRWPDLHSHHELRAMELCEFAFNMKKDEVCVNPYHYQRVETPVLPPVLVPRHTEIPAEFPPLDDYSHSIPENTNFPAGIEPQSNIPETPPPGYLSEDGETSDHQMNHSMDAGSPNLSPNPMSPAHNNLDLQPVTYCEPAFWCSISYYELNQRVGETFHASQPSMTVDGFTDPSNSERFCLGLLSNVNRNAAVELTRRHIGRGVRLYYIGGEVFAECLSDSAIFVQSPNCNQRYGWHPATVCKIPPGCNLKIFNNQEFAALLAQSVNQGFEAVYQLTRMCTIRMSFVKGWGAEYRRQTVTSTPCWIELHLNGPLQWLDKVLTQMGSPSIRCSSVS
notes: Smad3, full length; the only Smad3 cDNA named is the pCMV Flag hSmad3 vector (human); The methods tell the cloning into pGEX6P1 only for the deletion mutants; the full-length GST construct is not described; also called GST-tagged Smad3; source: E. coli BL21DE3, recombinant, immobilized on glutathione-Sepharose 4B beads

Source: PMC10951424, “Fibroblast-specific PRMT5 deficiency suppresses cardiac fibrosis and left ventricular dysfunction in male mice” (Nature Communications, 2024)
